These results are taken from doi:10.1101/2020.12.09.417477 (bioRxiv, 2020).

Among the targets are His-Prs-K182A (E. coli, UniProt P0A717 1-315, K182A); His-PrsK194A (E. coli, UniProt P0A717 1-315, K194A); His-Prs-K231A (E. coli, UniProt P0A717 1-315, K231A); His6-Prs (E. coli, UniProt P0A717 1-315).
Holding throughout (assay): pull-down

B1: CobB (enzyme, E. coli, UniProt P75960 1-279, looked up)
chain: MLSRRGHRLSRFRKNKRRLRERLRQRIFFRDKVVPEAMEKPRVLVLTGAGISAESGIRTFRAADGLWEEHRVEDVATPEGFDRDPELVQAFYNARRRQLQQPEIQPNAAHLALAKLQDALGDRFLLVTQNIDNLHERAGNTNVIHMHGELLKVRCSQSGQVLDWTGDVTPEDKCHCCQFPAPLRPHVVWFGEMPLGMDEIYMALSMADIFIAIGTSGHVYPAAGFVHEAKLHGAHTVELNLEPSQVGNEFAEKYYGPASQVVPEFVEKLLKGLKAGSIA
Take B1: the binding result with His-Prs-K182A, with His-PrsK194A, with His-Prs-K231A and with His6-Prs was “binds” in each case.

B2: acetylated CobB (enzyme, E. coli, UniProt P75960 1-279, looked up)
chain: B1 chain
modifications: acetyl-lysines (acetylated in vitro with acetyl phosphate); positions are in Supplementary Table 2
In the case of B2, in the test with His6-Prs, the binding result is “binds”.
